Source: patent publication US20240076396A1

Assays:
[1] = target: cynomolgus monkey GITR expressed on the cell surface (Macaca fascicularis (cynomolgus monkey)); experiment: flow cytometry on Jurkat/hCD20/MfGITR cells, 18 pM to 300 nM
[2] = target: human GITR expressed on the cell surface (human) (UniProt Q9Y5U5); experiment: flow cytometry, AF647 antibody at 200 nM; human primary CD4+ CD25+ T-cells, donor 8700C
[3] = target: cynomolgus monkey GITR expressed on the cell surface (Macaca fascicularis (cynomolgus monkey)); experiment: flow cytometry, AF647 antibody at 200 nM; cynomolgus primary CD8+ CD69+ T-cells, donor 58945
[4] = target: human GITR expressed on the cell surface (human) (UniProt Q9Y5U5); experiment: flow cytometry on Jurkat/hCD20/hGITR cells; max MFI over secondary antibody alone
[5] = target: cynomolgus monkey GITR expressed on the cell surface (Macaca fascicularis (cynomolgus monkey)); experiment: flow cytometry, AF647 antibody at 200 nM; cynomolgus primary CD4+ CD69+ T-cells, donor 58948
[6] = target: human GITR expressed on the cell surface (human) (UniProt Q9Y5U5); experiment: flow cytometry, AF647 antibody at 200 nM; human primary CD4+ CD25+ T-cells, donor 2700*
[7] = target: cynomolgus monkey GITR expressed on the cell surface (Macaca fascicularis (cynomolgus monkey)); experiment: flow cytometry, AF647 antibody at 200 nM; cynomolgus primary non-activated CD8+ CD69- T-cells, donor 58945
[8] = target: human GITR expressed on the cell surface (human) (UniProt Q9Y5U5); experiment: flow cytometry, AF647 antibody at 200 nM; human primary non-activated CD4+ CD25- T-cells, donor 2700*
[9] = target: cynomolgus monkey GITR expressed on the cell surface (Macaca fascicularis (cynomolgus monkey)); experiment: flow cytometry, AF647 antibody at 200 nM; cynomolgus primary CD4+ CD69+ T-cells, donor 58945
[10] = target: cynomolgus monkey GITR expressed on the cell surface (Macaca fascicularis (cynomolgus monkey)); experiment: flow cytometry, AF647 antibody at 200 nM; cynomolgus primary non-activated CD8+ CD69- T-cells, donor 58947
[11] = target: cynomolgus monkey GITR expressed on the cell surface (Macaca fascicularis (cynomolgus monkey)); experiment: flow cytometry, AF647 antibody at 200 nM; cynomolgus primary non-activated CD4+ CD69- T-cells, donor 58945
[12] = target: hGITR.mmH (soluble monomeric recombinant human GITR ectodomain protein) (human); experiment: blocking ELISA: 1.5 nM hGITR.mmH pre-incubated with antibody (up to 3 µM), binding to plate-coated hGITR-L
hGITR.mmH (soluble monomeric recombinant human GITR ectodomain protein) (human), sequence (chain, as listed by the source limits assumed): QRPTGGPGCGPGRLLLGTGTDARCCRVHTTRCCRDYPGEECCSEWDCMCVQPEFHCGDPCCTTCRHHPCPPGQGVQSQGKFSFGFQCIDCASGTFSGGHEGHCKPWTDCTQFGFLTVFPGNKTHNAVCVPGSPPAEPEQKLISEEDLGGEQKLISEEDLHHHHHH

[13] = target: human GITR expressed on the cell surface (human) (UniProt Q9Y5U5); experiment: flow cytometry, AF647 antibody at 200 nM; human primary CD8+ CD25+ T-cells, donor 8700C
[14] = target: cynomolgus monkey GITR expressed on the cell surface (Macaca fascicularis (cynomolgus monkey)); experiment: flow cytometry, AF647 antibody at 200 nM; cynomolgus primary non-activated CD4+ CD69- T-cells, donor 58946
[15] = target: human GITR expressed on the cell surface (human) (UniProt Q9Y5U5); experiment: flow cytometry, AF647 antibody at 200 nM; human primary non-activated CD8+ CD25- T-cells, donor 7900C
[16] = target: cynomolgus monkey GITR expressed on the cell surface (Macaca fascicularis (cynomolgus monkey)); experiment: flow cytometry, AF647 antibody at 200 nM; cynomolgus primary non-activated CD8+ CD69- T-cells, donor 58946
[17] = target: human GITR expressed on the cell surface (human) (UniProt Q9Y5U5); experiment: flow cytometry, AF647 antibody at 200 nM; human primary CD8+ CD25+ T-cells, donor 26001
[18] = target: human GITR expressed on the cell surface (human) (UniProt Q9Y5U5); experiment: flow cytometry, AF647 antibody at 200 nM; human primary CD4+ CD25+ T-cells, donor 7900C
[19] = target: human GITR expressed on the cell surface (human) (UniProt Q9Y5U5); experiment: flow cytometry, AF647 antibody at 200 nM; human primary non-activated CD8+ CD25- T-cells, donor 2700*
[20] = target: cynomolgus monkey GITR expressed on the cell surface (Macaca fascicularis (cynomolgus monkey)); experiment: flow cytometry, AF647 antibody at 200 nM; cynomolgus primary non-activated CD4+ CD69- T-cells, donor 58948
[21] = target: human GITR expressed on the cell surface (human) (UniProt Q9Y5U5); experiment: flow cytometry, AF647 antibody at 200 nM; human primary non-activated CD8+ CD25- T-cells, donor 26001
[22] = target: cynomolgus monkey GITR expressed on the cell surface (Macaca fascicularis (cynomolgus monkey)); experiment: flow cytometry, AF647 antibody at 200 nM; cynomolgus primary non-activated CD4+ CD69- T-cells, donor 58947
[23] = target: human GITR expressed on the cell surface (human) (UniProt Q9Y5U5); experiment: flow cytometry on Jurkat/hCD20/hGITR cells, 18 pM to 300 nM
[24] = target: cynomolgus monkey GITR expressed on the cell surface (Macaca fascicularis (cynomolgus monkey)); experiment: flow cytometry, AF647 antibody at 200 nM; cynomolgus primary CD4+ CD69+ T-cells, donor 58946
[25] = target: cynomolgus monkey GITR expressed on the cell surface (Macaca fascicularis (cynomolgus monkey)); experiment: flow cytometry, AF647 antibody at 200 nM; cynomolgus primary CD8+ CD69+ T-cells, donor 58947
[26] = target: cynomolgus monkey GITR expressed on the cell surface (Macaca fascicularis (cynomolgus monkey)); experiment: flow cytometry, AF647 antibody at 200 nM; cynomolgus primary non-activated CD8+ CD69- T-cells, donor 58948
[27] = target: cynomolgus monkey GITR expressed on the cell surface (Macaca fascicularis (cynomolgus monkey)); experiment: flow cytometry, AF647 antibody at 200 nM; cynomolgus primary CD4+ CD69+ T-cells, donor 58947
[28] = target: cynomolgus monkey GITR expressed on the cell surface (Macaca fascicularis (cynomolgus monkey)); experiment: flow cytometry, AF647 antibody at 200 nM; cynomolgus primary CD8+ CD69+ T-cells, donor 58946
[29] = target: human GITR expressed on the cell surface (human) (UniProt Q9Y5U5); experiment: flow cytometry, AF647 antibody at 200 nM; human primary CD8+ CD25+ T-cells, donor 2700*
[30] = target: human GITR expressed on the cell surface (human) (UniProt Q9Y5U5); experiment: flow cytometry, AF647 antibody at 200 nM; human primary CD4+ CD25+ T-cells, donor 26001
[31] = target: cynomolgus monkey GITR expressed on the cell surface (Macaca fascicularis (cynomolgus monkey)); experiment: flow cytometry on Jurkat/hCD20/MfGITR cells; max MFI over secondary antibody alone
[32] = target: human GITR expressed on the cell surface (human) (UniProt Q9Y5U5); experiment: flow cytometry, AF647 antibody at 200 nM; human primary CD8+ CD25+ T-cells, donor 7900C
[33] = target: human GITR expressed on the cell surface (human) (UniProt Q9Y5U5); experiment: flow cytometry, AF647 antibody at 200 nM; human primary non-activated CD4+ CD25- T-cells, donor 7900C
[34] = target: human GITR expressed on the cell surface (human) (UniProt Q9Y5U5); experiment: flow cytometry, AF647 antibody at 200 nM; human primary non-activated CD8+ CD25- T-cells, donor 8700C
[35] = target: Jurkat/hCD20 cells (human CD20, no GITR; negative control cell line) (human) (UniProt P11836); experiment: flow cytometry on Jurkat/hCD20 control cells, 18 pM to 300 nM
Jurkat/hCD20 cells (human CD20, no GITR; negative control cell line) (human), sequence (P11836 whole entry): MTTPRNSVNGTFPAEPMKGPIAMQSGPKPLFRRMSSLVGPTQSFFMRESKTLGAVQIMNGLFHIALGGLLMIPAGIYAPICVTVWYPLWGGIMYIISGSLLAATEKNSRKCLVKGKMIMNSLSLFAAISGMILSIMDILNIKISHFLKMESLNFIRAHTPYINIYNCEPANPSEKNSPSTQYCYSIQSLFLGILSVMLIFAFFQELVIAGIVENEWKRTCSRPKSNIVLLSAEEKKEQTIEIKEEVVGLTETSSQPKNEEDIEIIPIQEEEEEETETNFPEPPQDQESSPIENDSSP

[36] = target: Jurkat/hCD20 cells (human CD20, no GITR; negative control cell line) (human) (UniProt P11836); experiment: flow cytometry on Jurkat/hCD20 control cells; max MFI over secondary antibody alone
[37] = target: human GITR expressed on the cell surface (human) (UniProt Q9Y5U5); experiment: flow cytometry, AF647 antibody at 200 nM; human primary non-activated CD4+ CD25- T-cells, donor 26001
[38] = target: human GITR expressed on the cell surface (human) (UniProt Q9Y5U5); experiment: flow cytometry, AF647 antibody at 200 nM; human primary non-activated CD4+ CD25- T-cells, donor 8700C
[39] = target: cynomolgus monkey GITR expressed on the cell surface (Macaca fascicularis (cynomolgus monkey)); experiment: flow cytometry, AF647 antibody at 200 nM; cynomolgus primary CD8+ CD69+ T-cells, donor 58948

human GITR expressed on the cell surface (human), sequence (Q9Y5U5 26-241 limits assumed): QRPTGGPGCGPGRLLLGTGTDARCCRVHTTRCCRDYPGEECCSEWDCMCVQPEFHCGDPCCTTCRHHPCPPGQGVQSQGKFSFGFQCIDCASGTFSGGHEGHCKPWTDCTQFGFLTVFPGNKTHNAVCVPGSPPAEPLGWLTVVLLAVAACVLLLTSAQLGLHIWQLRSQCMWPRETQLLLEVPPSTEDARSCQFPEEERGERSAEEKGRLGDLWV

Max MFI [1]: 1360 MFI
Max MFI [2]: 1920 MFI
Max MFI [3]: 1090 MFI
Fold Binding [4]: 1.09 fold
Max MFI [5]: 1030 MFI
Max MFI [6]: 2080 MFI
Max MFI [7]: 565 MFI
Max MFI [8]: 1410 MFI
Max MFI [9]: 1110 MFI
Max MFI [10]: 601 MFI
Max MFI [11]: 730 MFI
% Max Inhibition [12]: -6%
Max MFI [13]: 1970 MFI
Max MFI [14]: 650 MFI
Max MFI [15]: 1140 MFI
Max MFI [16]: 455 MFI
Max MFI [17]: 1100 MFI
Max MFI [18]: 2280 MFI
Max MFI [19]: 1130 MFI
Max MFI [20]: 817 MFI
Max MFI [21]: 644 MFI
Max MFI [22]: 825 MFI
Max MFI [23]: 1090 MFI
Max MFI [24]: 803 MFI
Max MFI [25]: 921 MFI
Max MFI [26]: 512 MFI
Max MFI [27]: 1230 MFI
Max MFI [28]: 650 MFI
Max MFI [29]: 1990 MFI
Max MFI [30]: 1230 MFI
Fold Binding [31]: 1.1 fold
Max MFI [32]: 2090 MFI
Max MFI [33]: 1330 MFI
Max MFI [34]: 1780 MFI
Max MFI [35]: 1070 MFI
Fold Binding [36]: 1.15 fold
Max MFI [37]: 827 MFI
Max MFI [38]: 1060 MFI
Max MFI [39]: 1130 MFI
Substance: IgG1 isotype control (antibody)
